Test [1] concerns the target HLA-A*68:02. Kind of test: IEDB peptide-MHC binding, purified MHC/competitive/fluorescence; filed as Kd, often an IC50 or EC50 that approximates it; ≥ and ≤ were set here for values at or beyond the usual limits of such assays. As to conditions: source organism: Salmonella enterica subsp. enterica serovar Typhi.
Test [2] has as its target HLA-A*03:01. The test is described as above.
In test [3] the target is HLA-B*15:01. The test is described as above.
Test [4] deals with HLA-B*15:17. Nature of the test: IEDB peptide-MHC binding, purified MHC/direct/fluorescence; filed as Kd, often an IC50 or EC50 that approximates it; ≥ and ≤ were set here for values at or beyond the usual limits of such assays.
The next test concerns the target HLA-B*27:03. Kind of test: IEDB peptide-MHC binding, purified MHC/competitive/fluorescence; filed as Kd, often an IC50 or EC50 that approximates it; ≥ and ≤ were set here for values at or beyond the usual limits of such assays.
The target in another test is HLA-B*51:01. The test is described as above.
A further test has as its target HLA-A*26:01. Described as above.
In test [5] the target is HLA-A*02:01. The description is as above.
For test [6], the target named is HLA-B*57:01. The test is described as above.
Test [7] concerns the target HLA-B*18:01. Described as above.
The next test concerns the target HLA-B*39:01. The description is as above.
In test [8] the target is HLA-A*69:01. Described as above.
For test [9], the target named is HLA-B*15:17. The test is described as above.
Test [10] addresses HLA-B*46:01. The description is as above.
Test [11] deals with HLA-A*68:02. Nature of the test: IEDB peptide-MHC binding, purified MHC/direct/fluorescence; filed as Kd, often an IC50 or EC50 that approximates it; ≥ and ≤ were set here for values at or beyond the usual limits of such assays.
Another test concerns the target HLA-A*02:12. Described as above.
Test [12] deals with HLA-A*03:01. Described as above.
The target in the next test is HLA-A*02:19. The description is as above.
The target in another test is HLA-A*02:03. The test is described as above. To be noted: source organism: Entamoeba histolytica HM-1:IMSS.
The target of another test is HLA-A*02:11. The test is described as above.
The target of a further test is HLA-A*11:01. The description is as above.
The target of test [13] is HLA-B*57:01. Described as above.
The next test addresses HLA-B*58:01. The description is as above.
In a further test the target is HLA-A*01:01. Described as above. As to conditions: source organism: Reston ebolavirus - Reston.
A further test concerns the target HLA-B*27:05. Described as above. As to conditions: source organism: Reston ebolavirus - Reston.
In the next test the target is HLA-A*29:02. The test is described as above.
In another test the target is HLA-B*08:01. The description is as above. To be noted: source organism: Reston ebolavirus - Reston.
Test [14] addresses HLA-B*18:01. Described as above. To be noted: source organism: Reston ebolavirus - Reston.
The target of the next test is HLA-B*44:02. Described as above. As to conditions: source organism: Reston ebolavirus - Reston.
The target in another test is HLA-A*31:01. Described as above. As to conditions: source organism: Reston ebolavirus - Reston.
In a further test the target is HLA-B*48:01. The description is as above. To be noted: source organism: Reston ebolavirus - Reston.
Test [15] addresses HLA-B*15:01. The description is as above. To be noted: source organism: Reston ebolavirus - Reston.
In test [16] the target is HLA-B*46:01. The test is described as above. To be noted: source organism: Reston ebolavirus - Reston.
For test [17], the target named is HLA-A*02:01. Described as above.
Test [18] has as its target HLA-A*69:01. The test is described as above. To be noted: source organism: Amur virus.
A further test concerns the target HLA-A*02:16. The test is described as above. To be noted: source organism: Salmonella enterica subsp. enterica serovar Typhimurium str. LT2.
The target of the next test is HLA-A*24:03. The description is as above. As to conditions: source organism: Salmonella enterica subsp. enterica serovar Typhimurium str. LT2.
Setting [19] is: source organism: Salmonella enterica subsp. enterica serovar Typhi.
The mark [20] stands for this setting: source organism: Entamoeba dispar SAW760.
Where [21] appears, read: source organism: Entamoeba histolytica HM-1:IMSS.
The mark [22] stands for this setting: source organism: Rickettsia sibirica.
The mark [23] stands for this setting: source organism: Reston ebolavirus - Reston (1989).
[24] abbreviates: source organism: Reston ebolavirus - Reston.
Where [25] appears, read: source organism: Orthohantavirus sinnombreense.
The mark [26] stands for this setting: source organism: Convict Creek 107 virus.
Where [27] appears, read: source organism: Salmonella enterica subsp. enterica serovar Typhimurium str. LT2.
Setting [28] is: source organism: West Nile virus.

Data on twelve sequences can be found in the Immune Epitope Database (IEDB).

What is called Kd is the free concentration of one partner at which half of the binding sites on the other are occupied at equilibrium, for simple one-to-one binding. Read a low Kd as higher affinity.

For WVVDQNGRV, the equilibrium dissociation constant (Kd) with HLA-A*68:02 [1] turned out to be 0.0179 µM.

For the sequence AMAAAGMMY, the figures for the Kd with HLA-A*03:01 [2] (setting [19]) and with HLA-B*15:01 [3] (setting [19]) were 0.698 µM and 0.332 µM, respectively.

KTWGKNLVF: in the test with HLA-B*15:17 [4] (source organism: Yellow fever virus 1899/81), the Kd came to 0.0017 µM.

For the sequence STYQFSLMQ, the Kd with HLA-B*27:03 (setting [20]), with HLA-B*51:01 (setting [20]), in the test with HLA-A*26:01 (setting [20]), with HLA-A*02:01 [5] (setting [20]), in the test with HLA-B*57:01 [6] (setting [20]) and with HLA-B*18:01 [7] (setting [20]) was at least 20 µM throughout. Besides, the Kd in the test with HLA-B*39:01 (setting [20]), in the test with HLA-A*69:01 [8] (setting [20]), with HLA-B*15:17 [9] (setting [20]), in the test with HLA-B*46:01 [10] (setting [20]), with HLA-A*68:02 [11] (setting [21]) and with HLA-A*02:12 (setting [21]) was at least 20 µM in each case. Further, the dissociation constant (Kd) with HLA-A*03:01 [12] (setting [21]), with HLA-A*02:19 (setting [21]), with HLA-A*02:03, in the test with HLA-A*02:11 (setting [21]) and with HLA-A*11:01 (setting [21]) was at least 20 µM throughout.

RMLHLSQMH showed a Kd in the test with HLA-A*03:01 [2] (source organism: Bacillus anthracis str. A0488) of 0.0258 µM.

Consider ASWMALGVY, for which the Kd in the test with HLA-B*57:01 [13] (source organism: Rickettsia sibirica 246) is at least 20 µM; with HLA-B*15:17 [4] (setting [22]) it was 0.0239 µM; with HLA-B*58:01 (setting [22]), 1.32 µM.

Consider QLSLRMLSL, for which the Kd with HLA-B*27:03 (setting [23]), with HLA-A*26:01 (setting [23]), in the test with HLA-A*02:01 [5] (setting [23]), with HLA-B*39:01 (setting [23]), with HLA-A*69:01 [8] (setting [23]) and in the test with HLA-A*01:01 was at least 20 µM throughout. The equilibrium dissociation constant (Kd) with HLA-B*27:05 is at least 20 µM; in the test with HLA-A*29:02 (setting [24]) it was at least 20 µM; with HLA-B*08:01, 0.859 µM; with HLA-A*03:01 [12] (setting [24]) it was at least 20 µM; with HLA-B*57:01 [13] (setting [24]), at least 20 µM; in the test with HLA-B*18:01 [14], at least 20 µM. Also, the Kd with HLA-B*44:02, in the test with HLA-A*11:01 (setting [24]), with HLA-B*58:01 (setting [24]), in the test with HLA-A*31:01, with HLA-B*48:01 and in the test with HLA-B*15:01 [15] was at least 20 µM throughout. Besides, the Kd with HLA-B*46:01 [16] is at least 20 µM.

For TLTRGQNTV, the dissociation constant Kd is 0.058 µM with HLA-A*02:12 (source organism: Amur virus); 0.0396 µM with HLA-A*02:01 [17] (source organism: Amur virus); 0.137 µM with HLA-A*02:19 (source organism: Amur virus); at least 20 µM with HLA-A*69:01 [18]; at least 20 µM with HLA-A*02:11 (source organism: Amur virus).

In the case of KLHRYIDSM, the dissociation constant Kd with HLA-B*27:03 (setting [25]), in the test with HLA-B*51:01 (setting [25]), in the test with HLA-A*26:01 (setting [25]), with HLA-B*57:01 [6] (setting [25]), in the test with HLA-B*18:01 [7] (setting [25]) and in the test with HLA-B*39:01 (setting [25]) was at least 20 µM throughout. In addition, the Kd was at least 20 µM with HLA-B*15:17 [9] (setting [25]); at least 20 µM with HLA-B*46:01 [10] (setting [25]); 0.0342 µM with HLA-A*02:01 [17] (source organism: Orthohantavirus andesense); at least 20 µM with HLA-A*03:01 [12] (setting [26]); at least 20 µM with HLA-A*02:19 (setting [26]).

For the sequence CMKTFFGWK, the Kd with HLA-A*03:01 [2] (source organism: Influenza A virus (A/Hong Kong/1774/99(H3N2))) is 0.0354 µM.

Take FTGEYLLRL: the equilibrium dissociation constant (Kd) with HLA-B*27:03 (source organism: Homo sapiens), with HLA-B*51:01 (source organism: Homo sapiens), in the test with HLA-A*26:01 (source organism: Homo sapiens), with HLA-B*57:01 [6] (source organism: Homo sapiens), with HLA-B*18:01 [7] (source organism: Homo sapiens) and in the test with HLA-B*39:01 (source organism: Homo sapiens) was at least 20 µM throughout. For the same sequence, the Kd with HLA-A*69:01 [8] (source organism: Homo sapiens), with HLA-B*15:01 [3] (source organism: Homo sapiens), with HLA-B*46:01 [10] (source organism: Homo sapiens), with HLA-A*02:16, with HLA-A*29:02 (setting [27]) and with HLA-A*68:02 [11] (setting [27]) was at least 20 µM each time. Besides, the dissociation constant Kd in the test with HLA-A*02:12 (setting [27]) is 1.04 µM; with HLA-A*02:01 [17] (source organism: Salmonella enterica subsp. enterica serovar Typhimurium), 0.229 µM; in the test with HLA-A*03:01 [12] (setting [27]), at least 20 µM; in the test with HLA-A*02:19 (setting [27]), at least 20 µM; in the test with HLA-A*24:03, at least 20 µM.

GSRAIWFMW: the dissociation constant (Kd) with HLA-B*57:01 [13] (setting [28]) is 0.038 µM; with HLA-B*15:17 [4] (setting [28]), 0.063 µM.
